# T1: Barx1 HD fragment (UniProt Q9ER42 95-221)
# T1 sequence: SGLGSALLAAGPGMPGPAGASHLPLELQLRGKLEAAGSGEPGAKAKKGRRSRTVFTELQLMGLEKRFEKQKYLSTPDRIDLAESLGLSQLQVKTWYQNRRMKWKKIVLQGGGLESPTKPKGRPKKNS
# T2: VENTX HD fragment (UniProt O95231 69-178)
# T2 sequence: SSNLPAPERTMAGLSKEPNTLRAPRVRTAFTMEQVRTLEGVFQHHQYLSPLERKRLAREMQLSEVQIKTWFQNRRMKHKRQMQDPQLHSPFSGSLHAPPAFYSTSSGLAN
# T3: En1 HD fragment (UniProt P09065 282-401)
# T3 sequence: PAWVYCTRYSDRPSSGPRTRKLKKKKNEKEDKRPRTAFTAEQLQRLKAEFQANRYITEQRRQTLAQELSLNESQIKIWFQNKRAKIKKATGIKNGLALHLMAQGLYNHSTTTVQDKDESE
# B1: Barx1_SELEX_2 (dsDNA)
# DNA 1: TATTCGAAACAATTAAATAACGATTACTGTAGTGCGGGCGTGGCT
# DNA 2: AGCCACGCCCGCACTACAGTAATCGTTATTTAATTGTTTCGAATA
# B2: MSX1_SELEX_1+1 (dsDNA)
# DNA 1: TGCGAACAGAAGCCAATTAGTGGCTAATTGGCCAATTAGCTAGTGCGGGCGTGGCT
# DNA 2: AGCCACGCCCGCACTAGCTAATTGGCCAATTAGCCACTAATTGGCTTCTGTTCGCA
# B3: Msx2_SELEX_2+1 (dsDNA)
# DNA 1: TGCGGGGCAATTAAATGACCAATTAGTGATAGTGCGGGCGTGGCT
# DNA 2: AGCCACGCCCGCACTATCACTAATTGGTCATTTAATTGCCCCGCA
# B4: Dlx2_SELEX_2 (dsDNA)
# DNA 1: TTCATGCAATTACTGCTAATTGCCACTATAGTGCGGGCGTGGCT
# DNA 2: AGCCACGCCCGCACTATAGTGGCAATTAGCAGTAATTGCATGAA
# B5: Barhl2_SELEX_1+1 (dsDNA)
# DNA 1: TATTGTTGCTAAACGGTGGCGTTTAGCGTGTAGTGCGGGCGTGGCT
# DNA 2: AGCCACGCCCGCACTACACGCTAAACGCCACCGTTTAGCAACAATA
# B6: Alx1_SELEX_2+1 (dsDNA)
# DNA 1: TGCGCCTAATTAGGATTAACCTGAACAGATAGTGCGGGCGTGGCT
# DNA 2: AGCCACGCCCGCACTATCTGTTCAGGTTAATCCTAATTAGGCGCA
# B7: Arx_SELEX_1 (dsDNA)
# DNA 1: TGCGTTGCTAATTGAATTAGCACACGTGCTAGTGCGGGCGTGGCT
# DNA 2: AGCCACGCCCGCACTAGCACGTGTGCTAATTCAATTAGCAACGCA
# B8: Msx2_SELEX_2 (dsDNA)
# DNA 1: TGCGGGGCAATTAAATACCAATTAGTGATAGTGCGGGCGTGGCT
# DNA 2: AGCCACGCCCGCACTATCACTAATTGGTATTTAATTGCCCCGCA
# B9: Alx1_SELEX_2 (dsDNA)
# DNA 1: TGCGCCTAATTAGATTAACCTGAACAGATAGTGCGGGCGTGGCT
# DNA 2: AGCCACGCCCGCACTATCTGTTCAGGTTAATCTAATTAGGCGCA
# B10: MSX1_SELEX_1 (dsDNA)
# DNA 1: TGCGAACAGAAGCCAATTAGTGCTAATTGGCCAATTAGCTAGTGCGGGCGTGGCT
# DNA 2: AGCCACGCCCGCACTAGCTAATTGGCCAATTAGCACTAATTGGCTTCTGTTCGCA
# B11: VENTX_SELEX_1 (dsDNA)
# DNA 1: TGAAGTTAAGCCTAATCGATAAACGATTAGCGTTAGGAATAGTGCGGGCGTGGCT
# DNA 2: AGCCACGCCCGCACTATTCCTAACGCTAATCGTTTATCGATTAGGCTTAACTTCA
# B12: Arx_SELEX_1+1 (dsDNA)
# DNA 1: TGCGTTGCTAATTGGAATTAGCACACGTGCTAGTGCGGGCGTGGCT
# DNA 2: AGCCACGCCCGCACTAGCACGTGTGCTAATTCCAATTAGCAACGCA
# B13: Gsx2_SELEX_1 (dsDNA)
# DNA 1: TCCAACAACAATTAAAAACATATTAACGTAGTGCGGGCGTGGCT
# DNA 2: AGCCACGCCCGCACTACGTTAATATGTTTTTAATTGTTGTTGGA
# B14: Gsx1_HOMER (dsDNA)
# DNA 1: TCACACTTAATTACTAATTAATTACGTAGTGCGGGCGTGGCT
# DNA 2: AGCCACGCCCGCACTACGTAATTAATTAGTAATTAAGTGTGA
# B15: Alx4_SELEX_1 (dsDNA)
# DNA 1: TGTGTCTTAATTAGATTAACGCACTTGATAGTGCGGGCGTGGCT
# DNA 2: AGCCACGCCCGCACTATCAAGTGCGTTAATCTAATTAAGACACA
# B16: Alx4_SELEX_1+1 (dsDNA)
# DNA 1: TGTGTCTTAATTAGGATTAACGCACTTGATAGTGCGGGCGTGGCT
# DNA 2: AGCCACGCCCGCACTATCAAGTGCGTTAATCCTAATTAAGACACA
# B17: Gsx2_SELEX_2 (dsDNA)
# DNA 1: TCCAACAGTCATTAAACTCTCATTATCGTAGTGCGGGCGTGGCT
# DNA 2: AGCCACGCCCGCACTACGATAATGAGAGTTTAATGACTGTTGGA
# B18: En1_SELEX_2+1 (dsDNA)
# DNA 1: TGTAGGATAATTGGGGTAATTAGTGCAGATAGTGCGGGCGTGGCT
# DNA 2: AGCCACGCCCGCACTATCTGCACTAATTACCCCAATTATCCTACA
# B19: HESX1_HOMER (dsDNA)
# DNA 1: TCTTCTCTAATTAGTGCTAATTCTGTAGTGCGGGCGTGGCT
# DNA 2: AGCCACGCCCGCACTACAGAATTAGCACTAATTAGAGAAGA
# B20: En1_SELEX_2 (dsDNA)
# DNA 1: TGTAGGATAATTGGGTAATTAGTGCAGATAGTGCGGGCGTGGCT
# DNA 2: AGCCACGCCCGCACTATCTGCACTAATTACCCAATTATCCTACA
# B21: VENTX_SELEX_1+1 (dsDNA)
# DNA 1: TGAAGTTAAGCCTAATCGATAGAACGATTAGCGTTAGGAATAGTGCGGGCGTGGCT
# DNA 2: AGCCACGCCCGCACTATTCCTAACGCTAATCGTTCTATCGATTAGGCTTAACTTCA
# B22: Barx1_SELEX_2+1 (dsDNA)
# DNA 1: TATTCGAAACAATTAAATAGACGATTACTGTAGTGCGGGCGTGGCT
# DNA 2: AGCCACGCCCGCACTACAGTAATCGTCTATTTAATTGTTTCGAATA
# B23: HESX1_HOMER+1 (dsDNA)
# DNA 1: TCTTCTCTAATTAGTGGCTAATTCTGTAGTGCGGGCGTGGCT
# DNA 2: AGCCACGCCCGCACTACAGAATTAGCCACTAATTAGAGAAGA
# B24: Barhl2_SELEX_1 (dsDNA)
# DNA 1: TATTGTTGCTAAACGGTGCGTTTAGCGTGTAGTGCGGGCGTGGCT
# DNA 2: AGCCACGCCCGCACTACACGCTAAACGCACCGTTTAGCAACAATA
# B25: Gsx1_HOMER+1 (dsDNA)
# DNA 1: TCACACTTAATTACTGAATTAATTACGTAGTGCGGGCGTGGCT
# DNA 2: AGCCACGCCCGCACTACGTAATTAATTCAGTAATTAAGTGTGA
# B26: Dlx2_HOMER (dsDNA)
# DNA 1: TTCATGGGTAATTAGGTGTTATTATAGTGCGGGCGTGGCT
# DNA 2: AGCCACGCCCGCACTATAATAACACCTAATTACCCATGAA
# Key:
# Barx1 HD fragment = target: T1, Barx1 HD fragment; assay: EMSA; EMSA, 34 nM IRDye700 probe, room temperature 20 min, 4% polyacrylamide gel 150 V 2 h; binding buffer as in cited ref 35 (not given); details: protein: recombinant; tags: N-terminal 6xHis (pET-14b or pET-14P; may be cleaved); chain copies: 2; label: 5' IRDye700 on bottom strand; blunt
# MSX1 HD fragment = MSX1 HD fragment (UniProt P28360 131-258); assay: as above; details: protein: recombinant; tags: N-terminal 6xHis (pET-14b or pET-14P; may be cleaved); label: 5' IRDye700 on bottom strand; blunt
# Msx2 HD fragment = Msx2 HD fragment (UniProt Q03358 99-227); assay: as above; details: protein: recombinant; tags: N-terminal 6xHis (pET-14b or pET-14P; may be cleaved); chain copies: 2; label: 5' IRDye700 on bottom strand; blunt
# Dlx2 HD fragment = Dlx2 HD fragment (UniProt P40764 137-229); assay: EMSA; 20 and 80 nM protein; monomer; EMSA, 34 nM IRDye700 probe, room temperature 20 min, 4% polyacrylamide gel 150 V 2 h; binding buffer as in cited ref 35 (not given); details: protein: recombinant; tags: N-terminal 6xHis (pET-14b or pET-14P; may be cleaved); label: 5' IRDye700 on bottom strand; blunt
# Barhl2 HD fragment = Barhl2 HD fragment (UniProt Q8VIB5 190-316); assay: EMSA; EMSA, 34 nM IRDye700 probe, room temperature 20 min, 4% polyacrylamide gel 150 V 2 h; binding buffer as in cited ref 35 (not given); details: protein: recombinant; tags: N-terminal 6xHis (pET-14b or pET-14P; may be cleaved); label: 5' IRDye700 on bottom strand; blunt
# Alx1 (Cart1) HD fragment = Alx1 (Cart1) HD fragment (UniProt Q8C8B0 105-220); assay: as above; details: protein: recombinant; tags: N-terminal 6xHis (pET-14b or pET-14P; may be cleaved); chain copies: 2; label: 5' IRDye700 on bottom strand; blunt
# Arx HD fragment = Arx HD fragment (UniProt O35085 292-420); assay: as above; details: protein: recombinant; tags: N-terminal 6xHis (pET-14b or pET-14P; may be cleaved); chain copies: 2; label: 5' IRDye700 on bottom strand; blunt
# VENTX HD fragment = target: T2, VENTX HD fragment; assay: as above; details: protein: recombinant; tags: N-terminal 6xHis (pET-14b or pET-14P; may be cleaved); chain copies: 2; label: 5' IRDye700 on bottom strand; blunt
# Gsx2 HD fragment = Gsx2 HD fragment (UniProt P31316 167-305); assay: EMSA; 100 and 400 nM protein; EMSA, 34 nM IRDye700 probe, room temperature 20 min, 4% polyacrylamide gel 150 V 2 h; binding buffer as in cited ref 35 (not given); details: protein: recombinant; tags: N-terminal 6xHis (pET-14b or pET-14P; may be cleaved); chain copies: 2; label: 5' IRDye700 on bottom strand; blunt
# Gsx1 HD fragment = Gsx1 HD fragment (UniProt P31315 127-261); assay: EMSA; EMSA, 34 nM IRDye700 probe, room temperature 20 min, 4% polyacrylamide gel 150 V 2 h; binding buffer as in cited ref 35 (not given); details: protein: recombinant; tags: N-terminal 6xHis (pET-14b or pET-14P; may be cleaved); chain copies: 2; label: 5' IRDye700 on bottom strand; blunt
# Alx4 HD fragment = Alx4 HD fragment (UniProt O35137 157-291); assay: as above; details: protein: recombinant; tags: N-terminal 6xHis (pET-14b or pET-14P; may be cleaved); chain copies: 2; label: 5' IRDye700 on bottom strand; blunt
# En1 HD fragment = target: T3, En1 HD fragment; assay: as above; details: protein: recombinant; tags: N-terminal 6xHis (pET-14b or pET-14P; may be cleaved); label: 5' IRDye700 on bottom strand; blunt
# HESX1 HD fragment = HESX1 HD fragment (UniProt Q9UBX0 65-185); assay: as above; details: protein: recombinant; tags: N-terminal 6xHis (pET-14b or pET-14P; may be cleaved); label: 5' IRDye700 on bottom strand; blunt
# Chain of HESX1 HD fragment (Q9UBX0 65-185): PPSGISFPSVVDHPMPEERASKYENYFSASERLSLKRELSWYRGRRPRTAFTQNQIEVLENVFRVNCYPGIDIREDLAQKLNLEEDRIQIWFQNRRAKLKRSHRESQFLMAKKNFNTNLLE
# Chain of Gsx1 HD fragment (P31315 127-261): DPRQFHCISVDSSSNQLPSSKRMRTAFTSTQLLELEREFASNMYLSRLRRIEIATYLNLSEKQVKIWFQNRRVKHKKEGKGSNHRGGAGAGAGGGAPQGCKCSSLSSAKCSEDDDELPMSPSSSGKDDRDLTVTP
# Chain of MSX1 HD fragment (P28360 131-258): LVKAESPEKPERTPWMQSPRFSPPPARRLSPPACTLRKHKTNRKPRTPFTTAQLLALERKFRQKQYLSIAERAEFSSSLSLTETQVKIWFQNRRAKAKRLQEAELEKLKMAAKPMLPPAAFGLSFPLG
# Chain of Alx4 HD fragment (O35137 157-291): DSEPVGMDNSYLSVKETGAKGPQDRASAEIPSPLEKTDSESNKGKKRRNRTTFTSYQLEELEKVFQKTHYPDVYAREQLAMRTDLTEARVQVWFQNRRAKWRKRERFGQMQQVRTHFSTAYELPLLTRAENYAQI
# Chain of Alx1 (Cart1) HD fragment (Q8C8B0 105-220): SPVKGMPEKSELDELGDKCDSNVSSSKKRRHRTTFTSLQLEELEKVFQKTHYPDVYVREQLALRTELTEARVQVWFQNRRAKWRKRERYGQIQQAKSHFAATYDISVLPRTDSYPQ
# Chain of Arx HD fragment (O35085 292-420): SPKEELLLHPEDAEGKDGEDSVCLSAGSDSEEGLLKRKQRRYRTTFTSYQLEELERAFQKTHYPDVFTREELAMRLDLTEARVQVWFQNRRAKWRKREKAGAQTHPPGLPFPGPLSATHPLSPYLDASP
# Chain of Dlx2 HD fragment (P40764 137-229): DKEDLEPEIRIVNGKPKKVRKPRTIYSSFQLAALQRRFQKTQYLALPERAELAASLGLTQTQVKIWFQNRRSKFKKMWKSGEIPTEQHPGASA
# Chain of Barhl2 HD fragment (Q8VIB5 190-316): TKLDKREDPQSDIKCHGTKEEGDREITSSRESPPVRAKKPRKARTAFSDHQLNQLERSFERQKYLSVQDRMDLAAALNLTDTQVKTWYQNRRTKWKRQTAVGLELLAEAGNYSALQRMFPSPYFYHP
# Chain of Gsx2 HD fragment (P31316 167-305): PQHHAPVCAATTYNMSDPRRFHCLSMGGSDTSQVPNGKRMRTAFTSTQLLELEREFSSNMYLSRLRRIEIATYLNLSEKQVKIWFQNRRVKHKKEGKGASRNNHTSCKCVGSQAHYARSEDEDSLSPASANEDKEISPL
# Chain of Msx2 HD fragment (Q03358 99-227): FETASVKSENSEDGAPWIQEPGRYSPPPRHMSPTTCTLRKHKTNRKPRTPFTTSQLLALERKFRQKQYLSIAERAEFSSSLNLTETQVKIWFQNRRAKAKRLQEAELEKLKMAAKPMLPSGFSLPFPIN
binder,measurement,setting,value
B1,cooperativity factor (tau),Barx1 HD fragment,4.4 ± 0.6 Tau cooperativity factor
B2,cooperativity factor (tau),MSX1 HD fragment,1.2 ± 0.2 Tau cooperativity factor
B3,cooperativity factor (tau),Msx2 HD fragment,2.1 ± 0.6 Tau cooperativity factor
B4,binding result,Dlx2 HD fragment,binds
B5,cooperativity factor (tau),Barhl2 HD fragment,6.4 ± 1.2 Tau cooperativity factor
B6,cooperativity factor (tau),Alx1 (Cart1) HD fragment,10.1 ± 9.7 Tau cooperativity factor
B7,cooperativity factor (tau),Arx HD fragment,168 ± 50.7 Tau cooperativity factor
B8,cooperativity factor (tau),Msx2 HD fragment,14 ± 2.6 Tau cooperativity factor
B9,cooperativity factor (tau),Alx1 (Cart1) HD fragment,126 ± 27.2 Tau cooperativity factor
B10,cooperativity factor (tau),MSX1 HD fragment,1.2 ± 0.1 Tau cooperativity factor
B11,cooperativity factor (tau),VENTX HD fragment,36.7 ± 3.9 Tau cooperativity factor
B12,cooperativity factor (tau),Arx HD fragment,36.4 ± 11.5 Tau cooperativity factor
B13,binding result,Gsx2 HD fragment,binds
B14,cooperativity factor (tau),Gsx1 HD fragment,48.7 ± 12.9 Tau cooperativity factor
B15,cooperativity factor (tau),Alx4 HD fragment,167 ± 23.1 Tau cooperativity factor
B16,cooperativity factor (tau),Alx4 HD fragment,1.1 ± 0.8 Tau cooperativity factor
B17,binding result,Gsx2 HD fragment,binds
B18,cooperativity factor (tau),En1 HD fragment,0.2 ± 0.1 Tau cooperativity factor
B19,cooperativity factor (tau),HESX1 HD fragment,1.7 ± 2 Tau cooperativity factor
B20,cooperativity factor (tau),En1 HD fragment,0.1 ± 0.1 Tau cooperativity factor
B21,cooperativity factor (tau),VENTX HD fragment,3.3 ± 3 Tau cooperativity factor
B22,cooperativity factor (tau),Barx1 HD fragment,0.7 ± 0.2 Tau cooperativity factor
B23,cooperativity factor (tau),HESX1 HD fragment,1.3 ± 1.8 Tau cooperativity factor
B24,cooperativity factor (tau),Barhl2 HD fragment,5.4 ± 0.58 Tau cooperativity factor
B25,cooperativity factor (tau),Gsx1 HD fragment,2.9 ± 0.9 Tau cooperativity factor
B26,binding result,Dlx2 HD fragment,binds
